The subject of data set [1] is KCM tumor cells. The experiment in a line: NK cell specific lysis of tumor cells. It counts as cell-based, mouse. The settings on record: various E:T ratios. The source says:
FIGS. 4A and 4B are graphs showing that an exemplary antibody of the presently disclosed subject matter (TAB-004) enhanced the cytotoxicity of Natural Killer (NK) cells to kill target tumor cells.
(§1) The TAB-004 antibody alone or conjugated to CpG ODN bound to a tumor cell line (referred to herein as the “KCM” cell line; see FIG. 3) generated from the triple transgenic PDA.MUC1.Tg mice.

Data set [2] has as its target T1, shed MUC1 (Homo sapiens, UniProt P15941).
T1 construct: from tissue; host or cells: human plasma, diluted 1:2 and 1:10
Put plainly: enzyme immunoassay (EIA) for shed MUC1 in plasma. On the procedure:
To that end, the ability of TAB-004 to detect levels of shed MUC1 in the plasma of patients was compared to the performances of these antibodies in plasma samples. An enzyme immunoassay (EIA) has been optimized using the TAB-004 antibody to capture and detect levels of shed MUC1 present in circulation. Briefly, a 96-well ELISA plate was coated with 100 μl of TAB-004 antibody at 50 μg/mL in PBS and incubated overnight at 4° C. Following incubation, excess TAB-004 capture antibody was removed from the plate. The plate was blocked with 200 μl of 1% dry milk in PBS to avoid non-specific binding and incubated for 1 hour at 4° C. The plates were washed extensively (3 times) with 250 μl PBS containing 0.05% (v/v) TWEEN®-20 using an ELISA plate washer. A MUC1 standard using a 25-mer polypeptide preparation from MUC1 TR was prepared ranging from 0-2000 U/ml. The test plasma was diluted 1:2, and 1:10 in 0.1% milk in PBS, and 100 μl was added to the appropriate wells in triplicate, and the plates were incubated for 2 hours at 37° C.
Plates were then washed and 100 μl of a polyclonal rabbit anti-MUC1 antibody (Genway) were added at 1:300,000 dilution in 0.1% milk in PBS to each well, and the plate was incubated for 1 hour at 37° C. The polyclonal antibody was washed from the wells and horse radish peroxidase-labeled goat anti-rabbit IgG was added at a 1:1,000 dilution in 0.1% milk in PBS and incubated at 37° C. for 1 hour. After washing the plates, 100 μL of a solution consisting of peroxidase substrate (TMB) was added to the wells, and the plates incubated at room temperature for 30 minutes in the dark. The reaction was stopped by the addition of 25 μl of 4.0 N sulfuric acid, and the optical density read at a wavelength of 450 nm using a SPECTRA-MAX 250 spectrophotometer. Standard curves were generated with regression analyses to determine concentrations of the unknown samples.
Arbitrary units (U)/ml were chosen based on an initial reference standard of MUC1. A linear range was determined to be 50-800 units/ml of MUC1 antigen. […]

Data set [3] relates to orthotopic tumors (PyVMT, PyVMT.MUC1, HCC-70, and AU565). Put plainly: IVIS imaging of TAB-004-ICG in Nu-J nude mice with orthotopic tumors. It counts as in vivo, mouse. As to conditions: ICG-conjugated. How it is done: FIGS. 18A-18D are a series of fluorescent images showing specific homimg of the ICG-tagged TAB-004 antibody to tumor sites in mice bearing PyV MT tumors (MUC1 null negative control; FIG. 18A), PyV MT.MUC1 tumors (MMT, MUC1+ positive control; FIG. 18B), HCC70 cell triple negative breast cancer (TNBC) tumors (MUC1+; FIG. 18C), and AU565 TNBC cell tumors (MUC1+; […]) imaged 4 hours post-injection with antibody. Imaging was repeated as tumors progressed (indicated as days post tumor challenge). […] Each of FIGS. 18A-18D is accompanied by a graph showing the growth of the tumor from 7-21 days (FIGS. 18A and 18B) or from 7 to 54 days (FIGS. 18C and 18D).
To test if TAB-004 can specifically reach TNBC tumors in vivo in mice, orthotopic tumors (PyVMT, PyVMT.MUC1, HCC-70, and AU565) were produced in the mammary fat pad of mice. Nu-J nude mice (8-week old) were injected with 10×10^6 cells in the lower right inquinal area of the mammary fat pad. When tumors were palpable, mice were injected retroorbitally with 12.5 μgs of TAB-004-directly conjugated to Indocyanine green (ICG) and imaged 4 hours post antibody injection. […] A negative breast cancer cell line that is null for human MUC1 was used as control to test specificity (PyVMT; see FIG. 18A).

The target of data set [4] is tumor-specific form of MUC1 (tMUC) (Homo sapiens, UniProt P15941). As to conditions: cited from earlier work.
The target in data set [5] is T2, mutated K-ras (Mus musculus, UniProt P32883, G12D).
T2 construct: from tissue; host or cells: tumour tissue expressing the K-ras mutation but not human MUC1
The experiment in a line: staining of tumor tissues expressing the K-ras mutation but not human MUC1. It counts as binding.

The subject of data set [6] is KCM pancreatic cell line. Put plainly: binding to KCM pancreatic cell line. It counts as cell-based, mouse.
Description: FIG. 3 is a schematic (upper left panel) showing an approach for creating a triple transgenic mouse line that expresses the Cre recombinase throughout the pancreas, a mutated K-ras oncogene polypeptide, and a human MUC1 polypeptide. This mouse develops pancreatic adenocarcinoma, cells of which were used to generate the primary tumor cell line KCM (lower panel). The KCM cell line was used to test the binding of an exemplary antibody of the presently disclosed subject matter (denoted in the Figure as “TAB” and in the instant disclosure as “TAB-004”) either alone or conjugated to CpG oligodeoxynucleotides (CpG ODN).
as §1

B1: TAB-004: mAb of the IgG isotype produced by hybridoma ATCC PTA-11550; binds tumor-specific epitope of human MUC1 (antibody, V domains shown)
VH: EVQLQQSGGERATPGASVKMSCKTSGYTFTNYWMHWVKQRPGQGLEWIGYINPSSGYTQYNQKFKDKATLTADKSSSTAYIQLSSLTSEDSAVYYCSTYYGDYLFPYWGQGTLVTVSA
VL: DVLMTQTPLSLPVSLGDQASISCRSSQDIVYGNGNTYLEWYLQKPGQSPKLLIYKVSNRFSGVPDRFSGSGSGTDFTLKISRVEAEDLGVYYCFQGSHVPYTFGGGTKLEIKR
B1: the “specific lysis of tumor cells by NK cells” value in data set [1] is reported as “enhanced specific lysis of KCM tumor cells”. Moreover, the “false negatives / positivity of cancer patient plasma” value in data set [2] (36 breast cancer plasma samples for CA15-3) is given as “All cancer patient plasma was positive”. Also, the “stage 2 and stage 3 pancreatic cancer patients above the normal range” value in data set [2] (n=5 per stage) was “all stage 2 and stage 3 patients”. Further, the “false positive results in normal patients” value in data set [2] (n=12 normal, cutoff <40 U/ml TAB-004, <31 U/ml CA15-3) was “no false positives”. Further, in data set [3] (HCC70 and AU565, days post tumor challenge), the “earliest specific localization to tumor sites, human cell lines” value came to 21 days. Besides, in data set [3] (days post tumor challenge), the “earliest specific localization to tumor sites, PyVMT.MUC1 tumors” value was 11 days. Besides, in data set [4], the binding affinity was 3 ng/mL and the “binding to unrelated antigens” value was “does not bind unrelated antigens”. Besides, the Kd in data set [4] (read-out: binding affinity) was 0.02 nM. For the same molecule, in data set [5], the “cross reactivity with mutated K-ras” value is recorded as “cross reacted with mutated K-ras”. In addition, in data set [6], the “binding to KCM cell line” value is recorded as “bound to the KCM pancreatic cell line with equal affinity”.

Source of the values: patent US12605469B2, “Tumor specific antibody conjugates and uses therefor” (The University of North Carolina at Charlotte, priority 2019, dated 2026).
